Reference: patent publication US20200255494A1

Biological target: anti-HA1H TCR expressed on SupT1 cells
Assay: cell-based or functional assay

Substance | EC50 for HA1H peptide (pulsing concentration) in killing of SupT1 anti-HA1H TCR target cells, 48 h co-culture, 2:1 effector to target, flow cytometry
MHC I CAR with β2m-CD3z: HLA-A02 / β2m-CD3z chimeric construct loaded with recombinant HA1H peptide, on transduced PBMC CAR-T cells (from UniProt P61769 21-119; P20963 31-51; P20963 52-163) (peptide-MHC) | 500 nM
MHC I CAR with β2m-41BBz: HLA-A02 / β2m-41BBz chimeric construct loaded with recombinant HA1H peptide, on transduced PBMC CAR-T cells (from UniProt P61769 21-119; P20963 31-51; Q07011 214-255; P20963 52-163) (peptide-MHC) | 100 nM
